The labels stand for the following.
T1: TAF4 (human (endogenous in HeLa), UniProt O00268 1-1085)
T1 sequence (looked up): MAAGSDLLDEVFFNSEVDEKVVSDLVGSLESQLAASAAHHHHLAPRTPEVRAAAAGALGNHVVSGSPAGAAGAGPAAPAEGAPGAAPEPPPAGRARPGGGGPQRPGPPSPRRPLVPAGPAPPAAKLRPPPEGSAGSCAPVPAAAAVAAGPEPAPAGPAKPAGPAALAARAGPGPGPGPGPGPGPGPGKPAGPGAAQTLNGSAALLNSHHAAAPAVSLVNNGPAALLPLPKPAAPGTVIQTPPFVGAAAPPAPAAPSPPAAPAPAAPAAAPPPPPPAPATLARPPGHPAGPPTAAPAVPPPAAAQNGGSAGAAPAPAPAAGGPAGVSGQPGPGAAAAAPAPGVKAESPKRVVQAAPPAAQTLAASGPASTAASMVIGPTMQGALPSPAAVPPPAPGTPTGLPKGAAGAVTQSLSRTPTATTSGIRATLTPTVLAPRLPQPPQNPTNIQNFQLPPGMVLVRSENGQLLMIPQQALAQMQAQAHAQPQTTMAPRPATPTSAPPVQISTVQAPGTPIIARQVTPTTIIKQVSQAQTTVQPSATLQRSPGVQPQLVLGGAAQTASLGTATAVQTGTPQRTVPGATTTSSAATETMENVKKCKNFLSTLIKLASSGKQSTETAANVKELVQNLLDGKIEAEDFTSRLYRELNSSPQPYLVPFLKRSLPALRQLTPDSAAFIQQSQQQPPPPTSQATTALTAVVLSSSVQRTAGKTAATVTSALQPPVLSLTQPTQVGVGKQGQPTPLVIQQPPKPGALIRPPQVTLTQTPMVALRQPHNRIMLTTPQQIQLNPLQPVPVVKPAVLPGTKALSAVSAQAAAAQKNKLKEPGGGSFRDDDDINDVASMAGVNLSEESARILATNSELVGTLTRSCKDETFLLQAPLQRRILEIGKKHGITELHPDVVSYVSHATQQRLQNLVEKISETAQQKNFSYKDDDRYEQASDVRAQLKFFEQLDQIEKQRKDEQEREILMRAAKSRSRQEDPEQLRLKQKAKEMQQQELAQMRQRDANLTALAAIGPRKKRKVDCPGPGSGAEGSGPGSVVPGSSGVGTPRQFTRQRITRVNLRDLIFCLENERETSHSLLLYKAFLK

T2: TAF2 (human (endogenous in HeLa), UniProt Q6P1X5 1-1199)
T2 sequence (looked up): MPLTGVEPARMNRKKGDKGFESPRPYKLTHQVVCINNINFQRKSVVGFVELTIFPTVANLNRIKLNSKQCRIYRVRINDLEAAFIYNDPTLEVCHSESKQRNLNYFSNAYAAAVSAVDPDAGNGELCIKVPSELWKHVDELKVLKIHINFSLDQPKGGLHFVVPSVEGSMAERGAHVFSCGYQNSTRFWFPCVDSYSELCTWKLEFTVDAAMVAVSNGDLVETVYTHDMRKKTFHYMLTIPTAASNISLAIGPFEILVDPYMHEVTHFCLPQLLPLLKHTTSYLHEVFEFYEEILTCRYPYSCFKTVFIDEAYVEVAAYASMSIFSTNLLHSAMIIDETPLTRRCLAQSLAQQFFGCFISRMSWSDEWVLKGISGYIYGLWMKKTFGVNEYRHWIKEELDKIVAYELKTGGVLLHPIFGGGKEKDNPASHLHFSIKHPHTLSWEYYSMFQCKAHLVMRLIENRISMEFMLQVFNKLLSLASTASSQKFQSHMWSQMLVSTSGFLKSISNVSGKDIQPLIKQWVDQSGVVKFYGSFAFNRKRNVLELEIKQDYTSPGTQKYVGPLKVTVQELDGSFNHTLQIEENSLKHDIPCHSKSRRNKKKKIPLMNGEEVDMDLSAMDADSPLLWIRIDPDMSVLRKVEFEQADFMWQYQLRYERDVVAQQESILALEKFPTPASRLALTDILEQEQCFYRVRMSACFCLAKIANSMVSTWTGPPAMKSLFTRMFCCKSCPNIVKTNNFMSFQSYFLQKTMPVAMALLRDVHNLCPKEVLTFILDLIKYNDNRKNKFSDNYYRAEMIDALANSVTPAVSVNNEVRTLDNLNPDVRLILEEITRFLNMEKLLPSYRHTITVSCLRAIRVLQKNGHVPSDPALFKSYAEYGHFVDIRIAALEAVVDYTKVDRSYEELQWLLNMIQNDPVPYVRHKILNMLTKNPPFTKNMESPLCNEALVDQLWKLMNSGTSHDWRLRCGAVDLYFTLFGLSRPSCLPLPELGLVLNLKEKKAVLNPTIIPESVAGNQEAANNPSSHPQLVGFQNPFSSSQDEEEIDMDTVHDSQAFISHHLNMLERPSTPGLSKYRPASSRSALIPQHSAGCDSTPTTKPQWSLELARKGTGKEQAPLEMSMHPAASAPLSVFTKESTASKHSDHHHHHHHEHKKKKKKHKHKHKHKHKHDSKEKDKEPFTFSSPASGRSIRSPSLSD

B1: TAF5 (natural protein, human (endogenous in HeLa), UniProt Q15542 1-800, looked up)
chain: MAALAEEQTEVAVKLEPEGPPTLLPPQAGDGAGEGSGGTTNNGPNGGGGNVAASSSTGGDGGTPKPTVAVSAAAPAGAAPVPAAAPDAGAPHDRQTLLAVLQFLRQSKLREAEEALRREAGLLEEAVAGSGAPGEVDSAGAEVTSALLSRVTASAPGPAAPDPPGTGASGATVVSGSASGPAAPGKVGSVAVEDQPDVSAVLSAYNQQGDPTMYEEYYSGLKHFIECSLDCHRAELSQLFYPLFVHMYLELVYNQHENEAKSFFEKFHGDQECYYQDDLRVLSSLTKKEHMKGNETMLDFRTSKFVLRISRDSYQLLKRHLQEKQNNQIWNIVQEHLYIDIFDGMPRSKQQIDAMVGSLAGEAKREANKSKVFFGLLKEPEIEVPLDDEDEEGENEEGKPKKKKPKKDSIGSKSKKQDPNAPPQNRIPLPELKDSDKLDKIMNMKETTKRVRLGPDCLPSICFYTFLNAYQGLTAVDVTDDSSLIAGGFADSTVRVWSVTPKKLRSVKQASDLSLIDKESDDVLERIMDEKTASELKILYGHSGPVYGASFSPDRNYLLSSSEDGTVRLWSLQTFTCLVGYKGHNYPVWDTQFSPYGYYFVSGGHDRVARLWATDHYQPLRIFAGHLADVNCTRFHPNSNYVATGSADRTVRLWDVLNGNCVRIFTGHKGPIHSLTFSPNGRFLATGATDGRVLLWDIGHGLMVGELKGHTDTVCSLRFSRDGEILASGSMDNTVRLWDAIKAFEDLETDDFTTATGHINLPENSQELLLGTYMTKSTPVVHLHFTRRNLVLAAGAYSPQ
B2: TAF12 (natural protein, human (endogenous in HeLa), UniProt Q16514 1-161, looked up)
chain: MNQFGPSALINLSNFSSIKPEPASTPPQGSMANSTAVVKIPGTPGAGGRLSPENNQVLTKKKLQDLVREVDPNEQLDEDVEEMLLQIADDFIESVVTAACQLARHRKSSTLEVKDVQLHLERQWNMWIPGFGSEEIRPYKKACTTEAHKQRMALIRKTTKK
B3: TAF6 (natural protein)
chain: not shown
B4: TAF9 (natural protein, human (endogenous in HeLa), UniProt Q16594 1-264, looked up)
chain: MESGKTASPKSMPKDAQMMAQILKDMGITEYEPRVINQMLEFAFRYVTTILDDAKIYSSHAKKATVDADDVRLAIQCRADQSFTSPPPRDFLLDIARQRNQTPLPLIKPYSGPRLPPDRYCLTAPNYRLKSLQKKASTSAGRITVPRLSVGSVTSRPSTPTLGTPTPQTMSVSTKVGTPMSLTGQRFTVQMPTSQSPAVKASIPATSAVQNVLINPSLIGSKNILITTNMMSSQNTANESSNALKRKREDDDDDDDDDDDYDNL
B5: TAF8 (natural protein, human (endogenous in HeLa), UniProt Q7Z7C8 1-310, looked up)
chain: MADAAATAGAGGSGTRSGSKQSTNPADNYHLARRRTLQVVVSSLLTEAGFESAEKASVETLTEMLQSYISEIGRSAKSYCEHTARTQPTLSDIVVTLVEMGFNVDTLPAYAKRSQRMVITAPPVTNQPVTPKALTAGQNRPHPPHIPSHFPEFPDPHTYIKTPTYREPVSDYQVLREKAASQRRDVERALTRFMAKTGETQSLFKDDVSTFPLIAARPFTIPYLTALLPSELEMQQMEETDSSEQDEQTDTENLALHISMEDSGAEKENTSVLQQNPSLSGSRNGEENIIDNPYLRPVKKPKIRRKKSLS

Assay in all cases: cryo-EM structure
Data set [1] deals with T1, TAF4.
Data set [2] deals with the molecule itself.
For data set [3], the target named is B3.
For data set [4], the target named is B1.
Data set [5] concerns the target T2, TAF2.

The source of these data is article PMC6446905 (Science (New York, N.Y.), 2018).

As to B1, the binding result in data set [1] is “binds”. Turning to B2, the binding result in data set [1] is on record as “binds”. Turning to B3, the “stoichiometry N” value in data set [2] was determined as 2. As to B4, the binding result in data set [3] and in data set [4] was “binds” throughout.

As to B5, the binding result in data set [3], in data set [5] and in data set [4] was “binds” in each case.
